{
  "source": "paper PMC9084902",
  "about": "“Low-Molecular Weight Protamine Overcomes Chondroitin Sulfate Inhibition of Neural Regeneration” (Frontiers in Cell and Developmental Biology, 2022)",
  "key": {"hippocampal neurons [1]": {"tested_on": "hippocampal neurons", "assay": "neurite outgrowth on aggrecan substrate, hippocampal neurons", "type": "cell-based, Wistar rat", "conditions": "hippocampal neurons (E17 rat), 2 days on aggrecan; 10 μg/ml, precoated with aggrecan or soluble in medium; about 70 neurons/replicate, normalized to control; n = 3; Figure 2L", "method": "(§1) The cortex or hippocampus were obtained from 17 days-old Wistar rat embryos and transferred to ice-cold preparation solution. Neurons were further isolated exactly as described earlier in Sahu’s publication ([Sahu et al., 2019]). Primary rat cortical or hippocampal neurons (E17 Wistar rats) were cultured in 96-well plates at the density of 20000 cells/well in Neurobasal medium supplemented with B27 serum substitute, penicillin, streptomycin and L-glutamate for 2 days in vitro (DIV). The plates were precoated with aggrecan (5 ug/ml, 150 µl/well). Protamine or protamine peptides were added to the culture medium at different concentrations. To analyze the effect of protamine or its fragment on neurite outgrowth, the plates were coated with 10 μg/ml of protamine or LMWP. For the experiment with chondroitinase, the aggrecan-coated plates were treated with chondroitinase ABC (Amsbio AMS. E1028, lot CF0029) for 4 h followed by 2 times washing with PBS before cell plating, and the cell culture imaging was carried out after 3 DIV incubation with 4 uM LMWP added to the medium. Neurite outgrowth was imaged with phase contrast microscopy (Olympus IX70 microscope and Retiga 2000R digital camera) using both x10 and x20 objectives. Processes of neurons over the diameter of the neuronal soma were interpreted as neurites. Neurite length was measured with ImageJ software and averaged from 2 to 3 independent experiments with 1–2 technical replicas in each independent experiment."}, "hippocampal neurons [2]": {"tested_on": "hippocampal neurons", "assay": "neurite outgrowth on precoated plastic without aggrecan, hippocampal neurons", "type": "cell-based, Wistar rat", "conditions": "precoated 10 μg/ml on plastic, no aggrecan, 2 days; about 70 neurons/replicate; p < 0.0001, n = 7", "method": "as §1, with “Processes of neurons over the diameter of the neuronal soma were interpreted as neurites.” left out"}, "hippocampal neurons [3]": {"tested_on": "hippocampal neurons", "assay": "cell toxicity seen in neuronal morphology / neuronal cells in vitro", "type": "cell-based, Wistar rat", "method": "as §1"}, "brain cortex tissue": {"tested_on": "brain cortex tissue", "assay": "in vivo TUNEL apoptosis assay after cortical injection", "conditions": "1.5 μl cortical injection, 0.1 or 1 mg/ml, 3 days", "method": "For TUNEL apoptosis assay, 1.5 μl of protamine (0.1 mg/ml or 1 mg/ml) or LMWP (0.1 mg/ml or 1 mg/ml) was bilaterally injected to the adult C57Bl6 mouse (n = 10 total) into motor (ML: 1.5; AP: 2) and somatosensory (ML: 1.5; AP: −1.8) cerebral cortex 500–700 micrometers below the brain surface (4 injection sites per concentration of injected protamine and 6 injections per concentration of injected LMWP). After 3 days the animals were anesthetized with pentobarbital sodium and perfused with PBS and then 4%PFA. After paraffine embedding the brains were cut into 7 µm coronal sections. Staining was performed according to the protocol recommended by the commercial TUNEL assay kit (Dead End Fluorometric TUNEL System, Promega). Sections treated with DNase I were used as positive controls. Vectoshield medium with DAPI (Vector Laboratories) was used to visualize nuclei. Images were collected with Axio Imager M.1 fluorescent microscope (Zeiss), AxioCam HR3 digital camera and x10 0.45 NA objective (Carl Zeiss Microscopy) and analyzed with automatic cell counting using FIJI software (Image J, open-source). The fractions of TUNEL positive cells were calculated and averaged over 5 sections per mouse per injection place."}, "[4]": {"conditions": "ref Kaneda et al., 2005; Bromfield et al., 2013; cited from earlier work", "description": "Protamine is a small 33 amino acid long protein that takes part in DNA packing during spermatogenesis ([Kasinsky et al., 2011]). Over 60% of the salmon protamine sequence is comprised of arginines so that it interacts strongly with negatively charged DNA phosphates in vivo and potentially with any other negatively charged molecules. […] Protamine sulfate is therefore widely used as a drug in cardiopulmonary bypass surgery to stop the effect of heparin ([Kaneda et al., 2005]; [Bromfield et al. ... || The CS chains even enhance the neurite outgrowth-promoting effect of HB-GAM, and we have ended up in a model according to which the CS chains of the CSPGs display a positive role by concentrating HB-GAM on the matrix and presenting it to neuron surface receptors. According to our model, two polycationic regions separated by a linker are essential to reverse the CS inhibition of neurite outgrowth ([Paveliev et al., 2016]; [Rauvala et al., 2017]). To test our hypothesis we decided to search for peptide structures that are similar to HB-GAM and display similar binding properties. Protamine displa ..."}, "[5]": {"conditions": "attenuated total reflectance Fourier transform infrared spectroscopy; ref Umerska et al., 2015; cited from earlier work", "description": "Chondroitin sulfates (CS) bare multiple negative charges due to sulfate and carboxyl groups while protamine is a polycation at physiological pH values. […] As an FDA-approved drug for human use as anti-heparin, protamine might in addition have potential to overcome the regeneration inhibiting effe ..."}, "[6]": {"tested_on": "oligodendrocyte differentiation", "conditions": "ref Kuboyama et al., 2017; cited from earlier work", "description": "The CS chains even enhance the neurite outgrowth-promoting effect of HB-GAM, and we have ended up in a model according to which the CS chains of the CSPGs display a positive role by concentrating HB-GAM on the matrix and presenting it to neuron surface receptors. According to our model, two polycationic regions separated by a linker are essential to reverse the CS inhibition of neurite outgrowth ([Paveliev et al., 2016]; [Rauvala et al., 2017]). To test our hypothesis we decided to search for peptide structures that are similar to HB-GAM and display similar binding properties. Protamine displa ..."}, "[7]": {"tested_on": "PTPRZ (protein tyrosine phosphatase receptor type Z)", "conditions": "ref Kuboyama et al., 2017; cited from earlier work", "description": "In the case of HB-GAM we have identified glypican-1 as a neuron surface receptor using unbiased mass spectrometry search of neuron binding sites for the substrate-attached HB-GAM ([Paveliev et al., 2016]). […] Interaction of glypican-1 with LMWP also appears likely since LMWP binds to heparin/heparan sulfate chains. Another possible cell surface receptor of LMWP is the transmembrane receptor PTPRZ (protein tyrosine ph ..."}, "cervical spinal cord": {"tested_on": "cervical spinal cord", "assay": "distribution of fluorescent LMWP to spinal cord after subcutaneous administration", "type": "in vivo, mouse", "conditions": "2 h, confocal", "method": "The TAMRA-labelled LMWP was obtained from commercial provider Caslo ApS (DK-2800, Kongens Lyngby, Denmark). Sixteen micrograms of TAMRA-LMWPor unconjugated TAMRA (in 200 ul of 0.9% NaCl) was injected subcutaneously to upper back area to healthy adult mice (n = 2–3 animals/group). At the end of the experiment (2 h after injection), the animals were perfused with PBS and then with 4% paraformaldehyde (PFA) in PBS. The spinal cord was dissected and further fixed in PFA overnight. One hundred µm-thick longitudinal sections of the cervical spinal cord were cut with vibratome and imaged with Zeiss LSM880 confocal, 20x objective."}, "[8]": {"assay": "solid phase binding of mutated PTPσ ectodomain to aggrecan", "conditions": "80 nM, 10 μg/ml aggrecan coating, overnight 4°C, HRP anti-Fc/OPD 492 nm", "description": "The N-terminal extracellular part of PTPσ (protein tyrosine phosphatase sigma; PTPRS) that contains the three Ig domains (amino acids 1-321) and mediates CSPG binding ([Shen et al., 2009]) was cloned using the PTPσ cDNA kindly provided by Dr. John Flanagan (Harvard University). The PTPσ mutant lacking the CS binding site in the Ig1 domain was produced as described ([Shen et al., 2009]). The recombinants were produced as Fc-tagged proteins in 293T HEK cells and purified on protein A Sepharose.\nThe competition assay for LMWP in binding of PTPσ to aggrecan was done in a similar way as earlier ([Paveliev et al., 2016]). Briefly, after overnight coating with 10 μg/ml aggrecan (150 ul/well) at 4°C 96-well tissue culture plates (Nunc) were washed two times with 0.05% Tween-20 in PBS and were blocked for 1 h at room temperature with 1%BSA and 0.05% Tween-20 in PBS. The recombinant wild type PTPσ ectodomain or the mutated ectodomain lacking CS binding (80 nM) were mixed with different concentrations of LMWP in 1% BSA and 0.05% Tween-20 in PBS, and were incubated in the plates overnight at 4°C. After washing with 0.05% Tween20 (3 times, room temperature), the wells were incubated for 1 h (room temperature) with HRP conjugated goat anti-human FC part of IgG (1:5000, in 1% BSA and 0.05% Tween20 PBS) to detect the bound PTPσ. […]"}},
  "note": "Ends that are not written are not given here.",
  "data": [
    {"molecule": "protamine", "values": [
      {"measurement": "reversal of the inhibitory effect of aggrecan on neurite outgrowth (comparison among fragments)", "setting": "hippocampal neurons [1]", "value": "lower efficacy in the neurite outgrowth assay"},
      {"measurement": "total neurite length versus uncoated control", "setting": "hippocampal neurons [2]", "value": "increased the total neurite length as compared to the parallel control cultures"},
      {"measurement": "signs of cell toxicity in neuronal morphology", "setting": "hippocampal neurons [3]; hippocampal neurons, 2 days on aggrecan, 10 μg/ml, black arrows point to dead cells, Figure 2E,G", "value": "Signs of cell toxicity were observed in neuronal morphology"},
      {"measurement": "toxicity for neuronal cells (summary)", "setting": "hippocampal neurons [3]; neuronal systems, Figures 2, 4", "value": "toxic for neuronal cells"},
      {"measurement": "apoptotic cells in brain cortex (TUNEL staining)", "setting": "brain cortex tissue", "value": "high amount of apoptotic cells in brain cortex tissue"},
      {"measurement": "affinity for heparin", "setting": "[4]", "value": "binds the glycosaminoglycan heparin with high affinity"},
      {"measurement": "polyion complexation with CS", "setting": "[5]", "value": "Polyion complexation of CS with protamine was demonstrated"},
      {"measurement": "effect on CSPG-mediated inhibition of oligodendrocyte differentiation", "setting": "[6]", "value": "neutralizes the CSPG-mediated inhibition of oligodendrocyte differentiation"},
      {"measurement": "binding to PTPRZ", "setting": "[7]", "value": "known to bind protamine"}
    ]},
    {"molecule": "TAMRA-LMWP: fluorescent TAMRA-labelled LMWP (Caslo ApS) (VSRRRRRRGGRRRR; also: TAMRA label, site not given here)", "values": [
      {"measurement": "fluorescent signal in spinal cord parenchyma", "setting": "cervical spinal cord; 16 µg s.c. in 200 µl 0.9% NaCl, compared to TAMRA or noninjected animals, n = 2–3", "value": "clear fluorescent signal in the spinal cord parenchyma"},
      {"measurement": "parenchymal accumulation in spinal cord", "setting": "cervical spinal cord; 16 µg s.c., cervical region", "value": "Parenchymal accumulation"},
      {"measurement": "perivascular accumulation in spinal cord", "setting": "cervical spinal cord; 16 µg s.c., cervical region", "value": "Perivascular accumulation"}
    ]},
    {"molecule": "recombinant ectodomain of PTPσ mutated in a critical lysine residue: PTPσ mutant lacking the CS binding site in the Ig1 domain, Fc-tagged, produced in 293T HEK cells (protein, UniProt Q13332 30-1282, looked up, extracellular domain lysine mutation in Ig1 (position not given); Fc tag) extracellular domain: EEPPRFIKEPKDQIGVSGGVASFVCQATGDPKPRVTWNKKGKKVNSQRFETIEFDESAGAVLRIQPLRTPRDENVYECVAQNSVGEITVHAKLTVLREDQLPSGFPNIDMGPQLKVVERTRTATMLCAASGNPDPEITWFKDFLPVDPSASNGRIKQLRSETFESTPIRGALQIESSEETDQGKYECVATNSAGVRYSSPANLYVRELREVRRVAPRFSILPMSHEIMPGGNVNITCVAVGSPMPYVKWMQGAEDLTPEDDMPVGRNVLELTDVKDSANYTCVAMSSLGVIEAVAQITVKSLPKAPGTPMVTENTATSITITWDSGNPDPVSYYVIEYKSKSQDGPYQIKEDITTTRYSIGGLSPNSEYEIWVSAVNSIGQGPPSESVVTRTGEQAPASAPRNVQARMLSATTMIVQWEEPVEPNGLIRGYRVYYTMEPEHPVGNWQKHNVDDSLLTTVGSLLEDETYTVRVLAFTSVGDGPLSDPIQVKTQQGVPGQPMNLRAEARSETSITLSWSPPRQESIIKYELLFREGDHGREVGRTFDPTTSYVVEDLKPNTEYAFRLAARSPQGLGAFTPVVRQRTLQSKPSAPPQDVKCVSVRSTAILVSWRPPPPETHNGALVGYSVRYRPLGSEDPEPKEVNGIPPTTTQILLEALEKWTQYRITTVAHTEVGPGPESSPVVVRTDEDVPSAPPRKVEAEALNATAIRVLWRSPAPGRQHGQIRGYQVHYVRMEGAEARGPPRIKDVMLADAQWETDDTAEYEMVITNLQPETAYSITVAAYTMKGDGARSKPKVVVTKGAVLGRPTLSVQQTPEGSLLARWEPPAGTAEDQVLGYRLQFGREDSTPLATLEFPPSEDRYTASGVHKGATYVFRLAARSRGGLGEEAAEVLSIPEDTPRGHPQILEAAGNASAGTVLLRWLPPVPAERNGAIVKYTVAVREAGALGPARETELPAAAEPGAENALTLQGLKPDTAYDLQVRAHTRRGPGPFSPPVRYRTFLRDQVSPKNFKVKMIMKTSVLLSWEFPDNYNSPTPYKIQYNGLTLDVDGRTTKKLITHLKPHTFYNFVLTNRGSSLGGLQQTVTAWTAFNLLNGKPSVAPKPDADGFIMVYLPDGQSPVPVQSYFIVMVPLRKSRGGQFLTPLGSPEDMDLEELIQDISRLQRRSLRHSRQLEVPRPYIAARFSVLPPTFHPGDQKQYGGFDNRGLEPGHRYVLFVLAVLQKSEPTFAASPFSDPFQLDNPDPQPIVDGEEG", "values": [
      {"measurement": "binding to CS chains of aggrecan", "setting": "[8]", "value": "lacks the ability to bind to CS chains of the aggrecan substrate"}
    ]}
  ]
}
